Molecular target: T1, Suc-AEPF-pNA peptide substrate
T1 chain: AEPF

B1: mutant PIN1 PPIase (K77Q/K82Q) (protein)
chain: GSHMGKNGQGEPARVRCSHLLVKHSQSRRPSSWRQEQITRTQEEALELINGYIQKIKSGEEDFESLASQFSDCSSAKARGDLGAFSRGQMQKPFEDASFALRTGEMSGPVFTDSGIHIILRTE
Km: The Km for this substrate was much higher than 100 µM ([S]<<Km)
rate (rate constant k of the peptidyl-prolyl isomerase reaction): both wild type human PIN1 and mutant PIN1 PPIAse, at 0.033 nM with 100 µM Suc-AEPF-pNA, had a rate of 0.2
